Residue numbers refer to the chain shown, from its start. Names may count otherwise.

Consider eight molecules from patent publication US20150073033A1 (University of Texas, published 2015).

Sequences and labels used below:
B1: FLAG-tagged wild-type PKM2 (enzyme)
chain: not shown
notes: Expressed in U87/EGFR cells; also called FLAG-PKM2; WT FLAG-PKM2
B2: FLAG-tagged WT β-catenin (other, UniProt P35222 1-781, looked up)
chain: MATQADLMELDMAMEPDRKAAVSHWQQQSYLDSGIHSGATTTAPSLSGKGNPEEEDVDTSQVLYEWEQGFSQSFTQEQVADIDGQYAMTRAQRVRAAMFPETLDEGMQIPSTQFDAAHPTNVQRLAEPSQMLKHAVVNLINYQDDAELATRAIPELTKLLNDEDQVVVNKAAVMVHQLSKKEASRHAIMRSPQMVSAIVRTMQNTNDVETARCTAGTLHNLSHHREGLLAIFKSGGIPALVKMLGSPVDSVLFYAITTLHNLLLHQEGAKMAVRLAGGLQKMVALLNKTNVKFLAITTDCLQILAYGNQESKLIILASGGPQALVNIMRTYTYEKLLWTTSRVLKVLSVCSSNKPAIVEAGGMQALGLHLTDPSQRLVQNCLWTLRNLSDAATKQEGMEGLLGTLVQLLGSDDINVVTCAAGILSNLTCNNYKNKMMVCQVGGIEALVRTVLRAGDREDITEPAICALRHLTSRHQEAEMAQNAVRLHYGLPVVVKLLHPPSHWPLIKATVGLIRNLALCPANHAPLREQGAIPRLVQLLVRAHQDTQRRTSMGGTQQQFVEGVRMEEIVEGCTGALHILARDVHNRIVIRGLNTIPLFVQLLYSPIENIQRVAAGVLCELAQDKEAAEAIEAEGATAPLTELLHSRNEGVATYAAAVLFRMSEDKPQDYKKRLSVELTSSLFRTEPMAWNETADLGLDIGAQGEPLGYRQDDPSYRSFHSGGYGQDALGMDPMMEHEMGGHHPGADYPVDGLPDLGHAQDLMDGLPPGDSNQLAWFDTDL
notes: Transiently expressed in U87/EGFR or A431 cells; also called FLAG-β-catenin; not shown: FLAG tag
B3: E-cadherin (endogenous, A431 cells) (other, UniProt P12830 155-882, looked up)
chain: DWVIPPISCPENEKGPFPKNLVQIKSNKDKEGKVFYSITGQGADTPPVGVFIIERETGWLKVTEPLDRERIATYTLFSHAVSSNGNAVEDPMEILITVTDQNDNKPEFTQEVFKGSVMEGALPGTSVMEVTATDADDDVNTYNAAIAYTILSQDPELPDKNMFTINRNTGVISVVTTGLDRESFPTYTLVVQAADLQGEGLSTTATAVITVTDTNDNPPIFNPTTYKGQVPENEANVVITTLKVTDADAPNTPAWEAVYTILNDDGGQFVVTTNPVNNDGILKTAKGLDFEAKQQYILHVAVTNVVPFEVSLTTSTATVTVDVLDVNEAPIFVPPEKRVEVSEDFGVGQEITSYTAQEPDTFMEQKITYRIWRDTANWLEINPDTGAISTRAELDREDFEHVKNSTYTALIIATDNGSPVATGTGTLLLILSDVNDNAPIPEPRTIFFCERNPKPQVINIIDADLPPNTSPFTAELTHGASANWTIQYNDPTQESIILKPKMALEVGDYKINLKLMDNQNKDQVTTLEVSVCDCEGAAGVCRKAQPVEAGLQIPAILGILGGILALLILILLLLLFLRRRAVVKEPLLPPEDDTRDNVYYYDEEGGGEEDQDFDLSQLHRGLDARPEVTRNDVAPTLMSVPRYLPRPANPDEIGNFIDENLKAADTDPTAPPYDSLLVFDYEGSGSEAASLSSLNSSESDKDQDYDYLNEWGNRFKKLADMYGGGEDD
B4: FLAG-β-catenin Y333F (other, UniProt P35222 1-781, looked up)
chain: B2 chain with Y333F
notes: Transiently expressed in U87/EGFR or A431 cells; not shown: FLAG tag
B5: FLAG-PKM2 R399/400A (enzyme)
chain: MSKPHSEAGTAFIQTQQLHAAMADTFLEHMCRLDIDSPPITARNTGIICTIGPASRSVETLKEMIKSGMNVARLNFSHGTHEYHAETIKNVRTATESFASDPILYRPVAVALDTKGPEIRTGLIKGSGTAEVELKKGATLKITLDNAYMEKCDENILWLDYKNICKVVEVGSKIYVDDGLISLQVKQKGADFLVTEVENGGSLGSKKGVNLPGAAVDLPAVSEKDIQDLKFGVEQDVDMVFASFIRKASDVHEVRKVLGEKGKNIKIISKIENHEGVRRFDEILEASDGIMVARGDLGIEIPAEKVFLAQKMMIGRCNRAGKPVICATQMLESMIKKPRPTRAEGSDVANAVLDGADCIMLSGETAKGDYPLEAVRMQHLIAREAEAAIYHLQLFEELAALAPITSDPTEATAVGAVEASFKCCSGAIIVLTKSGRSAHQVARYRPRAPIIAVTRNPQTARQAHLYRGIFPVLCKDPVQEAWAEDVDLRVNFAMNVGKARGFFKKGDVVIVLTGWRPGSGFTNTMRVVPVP
notes: Expressed in U87/EGFR cells
B6: FLAG-PKM2 K433E (enzyme)
chain: not shown
notes: Expressed in U87/EGFR cells; also called PKM2 K433E mutant
B7: endogenous β-catenin (other, human, UniProt P35222 2-781, looked up)
chain: ATQADLMELDMAMEPDRKAAVSHWQQQSYLDSGIHSGATTTAPSLSGKGNPEEEDVDTSQVLYEWEQGFSQSFTQEQVADIDGQYAMTRAQRVRAAMFPETLDEGMQIPSTQFDAAHPTNVQRLAEPSQMLKHAVVNLINYQDDAELATRAIPELTKLLNDEDQVVVNKAAVMVHQLSKKEASRHAIMRSPQMVSAIVRTMQNTNDVETARCTAGTLHNLSHHREGLLAIFKSGGIPALVKMLGSPVDSVLFYAITTLHNLLLHQEGAKMAVRLAGGLQKMVALLNKTNVKFLAITTDCLQILAYGNQESKLIILASGGPQALVNIMRTYTYEKLLWTTSRVLKVLSVCSSNKPAIVEAGGMQALGLHLTDPSQRLVQNCLWTLRNLSDAATKQEGMEGLLGTLVQLLGSDDINVVTCAAGILSNLTCNNYKNKMMVCQVGGIEALVRTVLRAGDREDITEPAICALRHLTSRHQEAEMAQNAVRLHYGLPVVVKLLHPPSHWPLIKATVGLIRNLALCPANHAPLREQGAIPRLVQLLVRAHQDTQRRTSMGGTQQQFVEGVRMEEIVEGCTGALHILARDVHNRIVIRGLNTIPLFVQLLYSPIENIQRVAAGVLCELAQDKEAAEAIEAEGATAPLTELLHSRNEGVATYAAAVLFRMSEDKPQDYKKRLSVELTSSLFRTEPMAWNETADLGLDIGAQGEPLGYRQDDPSYRSFHSGGYGQDALGMDPMMEHEMGGHHPGADYPVDGLPDLGHAQDLMDGLPPGDSNQLAWFDTDL
notes: In EGF-treated cells it is tyrosine-phosphorylated (Y333) in the nucleus
B8: FLAG-PKM2 K367M (kinase-dead) (enzyme)
chain: not shown
notes: Expressed in U87/EGFR cells

The experiment “endogenous β-catenin” addresses B7. The experiment in a line: co-IP, EGF-treated U87/EGFR cells.
The target in experiment [1] is AXIN2 (endogenous, A431 cells) (UniProt Q9Y2T1 1-843). The experiment in a line: co-IP, A431 cells.
Sequence of AXIN2 (endogenous, A431 cells) (Q9Y2T1 whole entry): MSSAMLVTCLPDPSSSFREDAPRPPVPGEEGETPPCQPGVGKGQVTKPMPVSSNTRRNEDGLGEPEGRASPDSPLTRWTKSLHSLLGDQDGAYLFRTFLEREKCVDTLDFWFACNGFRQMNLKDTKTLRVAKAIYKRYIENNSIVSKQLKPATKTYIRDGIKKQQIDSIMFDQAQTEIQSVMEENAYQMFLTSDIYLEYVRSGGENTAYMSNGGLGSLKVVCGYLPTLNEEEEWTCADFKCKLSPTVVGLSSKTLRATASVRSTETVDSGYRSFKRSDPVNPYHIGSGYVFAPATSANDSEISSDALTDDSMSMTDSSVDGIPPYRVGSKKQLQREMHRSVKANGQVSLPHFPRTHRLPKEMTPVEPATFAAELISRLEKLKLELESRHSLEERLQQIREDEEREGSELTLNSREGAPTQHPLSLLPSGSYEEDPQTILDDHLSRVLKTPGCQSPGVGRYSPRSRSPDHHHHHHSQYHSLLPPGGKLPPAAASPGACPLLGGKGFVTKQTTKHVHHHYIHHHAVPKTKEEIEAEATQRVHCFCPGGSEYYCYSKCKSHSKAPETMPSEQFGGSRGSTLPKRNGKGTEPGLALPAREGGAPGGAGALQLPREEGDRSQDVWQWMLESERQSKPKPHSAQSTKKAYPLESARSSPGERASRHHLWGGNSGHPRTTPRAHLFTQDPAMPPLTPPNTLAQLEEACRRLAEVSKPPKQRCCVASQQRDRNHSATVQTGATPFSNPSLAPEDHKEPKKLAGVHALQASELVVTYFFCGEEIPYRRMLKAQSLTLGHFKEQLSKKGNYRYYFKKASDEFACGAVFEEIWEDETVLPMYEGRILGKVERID
For experiment [2], the target named is APC (endogenous, A431 cells) (UniProt P25054 2-2843, limits assumed). The experiment in a line: co-IP, A431 cells.
Sequence of APC (endogenous, A431 cells) (P25054 2-2843 limits assumed): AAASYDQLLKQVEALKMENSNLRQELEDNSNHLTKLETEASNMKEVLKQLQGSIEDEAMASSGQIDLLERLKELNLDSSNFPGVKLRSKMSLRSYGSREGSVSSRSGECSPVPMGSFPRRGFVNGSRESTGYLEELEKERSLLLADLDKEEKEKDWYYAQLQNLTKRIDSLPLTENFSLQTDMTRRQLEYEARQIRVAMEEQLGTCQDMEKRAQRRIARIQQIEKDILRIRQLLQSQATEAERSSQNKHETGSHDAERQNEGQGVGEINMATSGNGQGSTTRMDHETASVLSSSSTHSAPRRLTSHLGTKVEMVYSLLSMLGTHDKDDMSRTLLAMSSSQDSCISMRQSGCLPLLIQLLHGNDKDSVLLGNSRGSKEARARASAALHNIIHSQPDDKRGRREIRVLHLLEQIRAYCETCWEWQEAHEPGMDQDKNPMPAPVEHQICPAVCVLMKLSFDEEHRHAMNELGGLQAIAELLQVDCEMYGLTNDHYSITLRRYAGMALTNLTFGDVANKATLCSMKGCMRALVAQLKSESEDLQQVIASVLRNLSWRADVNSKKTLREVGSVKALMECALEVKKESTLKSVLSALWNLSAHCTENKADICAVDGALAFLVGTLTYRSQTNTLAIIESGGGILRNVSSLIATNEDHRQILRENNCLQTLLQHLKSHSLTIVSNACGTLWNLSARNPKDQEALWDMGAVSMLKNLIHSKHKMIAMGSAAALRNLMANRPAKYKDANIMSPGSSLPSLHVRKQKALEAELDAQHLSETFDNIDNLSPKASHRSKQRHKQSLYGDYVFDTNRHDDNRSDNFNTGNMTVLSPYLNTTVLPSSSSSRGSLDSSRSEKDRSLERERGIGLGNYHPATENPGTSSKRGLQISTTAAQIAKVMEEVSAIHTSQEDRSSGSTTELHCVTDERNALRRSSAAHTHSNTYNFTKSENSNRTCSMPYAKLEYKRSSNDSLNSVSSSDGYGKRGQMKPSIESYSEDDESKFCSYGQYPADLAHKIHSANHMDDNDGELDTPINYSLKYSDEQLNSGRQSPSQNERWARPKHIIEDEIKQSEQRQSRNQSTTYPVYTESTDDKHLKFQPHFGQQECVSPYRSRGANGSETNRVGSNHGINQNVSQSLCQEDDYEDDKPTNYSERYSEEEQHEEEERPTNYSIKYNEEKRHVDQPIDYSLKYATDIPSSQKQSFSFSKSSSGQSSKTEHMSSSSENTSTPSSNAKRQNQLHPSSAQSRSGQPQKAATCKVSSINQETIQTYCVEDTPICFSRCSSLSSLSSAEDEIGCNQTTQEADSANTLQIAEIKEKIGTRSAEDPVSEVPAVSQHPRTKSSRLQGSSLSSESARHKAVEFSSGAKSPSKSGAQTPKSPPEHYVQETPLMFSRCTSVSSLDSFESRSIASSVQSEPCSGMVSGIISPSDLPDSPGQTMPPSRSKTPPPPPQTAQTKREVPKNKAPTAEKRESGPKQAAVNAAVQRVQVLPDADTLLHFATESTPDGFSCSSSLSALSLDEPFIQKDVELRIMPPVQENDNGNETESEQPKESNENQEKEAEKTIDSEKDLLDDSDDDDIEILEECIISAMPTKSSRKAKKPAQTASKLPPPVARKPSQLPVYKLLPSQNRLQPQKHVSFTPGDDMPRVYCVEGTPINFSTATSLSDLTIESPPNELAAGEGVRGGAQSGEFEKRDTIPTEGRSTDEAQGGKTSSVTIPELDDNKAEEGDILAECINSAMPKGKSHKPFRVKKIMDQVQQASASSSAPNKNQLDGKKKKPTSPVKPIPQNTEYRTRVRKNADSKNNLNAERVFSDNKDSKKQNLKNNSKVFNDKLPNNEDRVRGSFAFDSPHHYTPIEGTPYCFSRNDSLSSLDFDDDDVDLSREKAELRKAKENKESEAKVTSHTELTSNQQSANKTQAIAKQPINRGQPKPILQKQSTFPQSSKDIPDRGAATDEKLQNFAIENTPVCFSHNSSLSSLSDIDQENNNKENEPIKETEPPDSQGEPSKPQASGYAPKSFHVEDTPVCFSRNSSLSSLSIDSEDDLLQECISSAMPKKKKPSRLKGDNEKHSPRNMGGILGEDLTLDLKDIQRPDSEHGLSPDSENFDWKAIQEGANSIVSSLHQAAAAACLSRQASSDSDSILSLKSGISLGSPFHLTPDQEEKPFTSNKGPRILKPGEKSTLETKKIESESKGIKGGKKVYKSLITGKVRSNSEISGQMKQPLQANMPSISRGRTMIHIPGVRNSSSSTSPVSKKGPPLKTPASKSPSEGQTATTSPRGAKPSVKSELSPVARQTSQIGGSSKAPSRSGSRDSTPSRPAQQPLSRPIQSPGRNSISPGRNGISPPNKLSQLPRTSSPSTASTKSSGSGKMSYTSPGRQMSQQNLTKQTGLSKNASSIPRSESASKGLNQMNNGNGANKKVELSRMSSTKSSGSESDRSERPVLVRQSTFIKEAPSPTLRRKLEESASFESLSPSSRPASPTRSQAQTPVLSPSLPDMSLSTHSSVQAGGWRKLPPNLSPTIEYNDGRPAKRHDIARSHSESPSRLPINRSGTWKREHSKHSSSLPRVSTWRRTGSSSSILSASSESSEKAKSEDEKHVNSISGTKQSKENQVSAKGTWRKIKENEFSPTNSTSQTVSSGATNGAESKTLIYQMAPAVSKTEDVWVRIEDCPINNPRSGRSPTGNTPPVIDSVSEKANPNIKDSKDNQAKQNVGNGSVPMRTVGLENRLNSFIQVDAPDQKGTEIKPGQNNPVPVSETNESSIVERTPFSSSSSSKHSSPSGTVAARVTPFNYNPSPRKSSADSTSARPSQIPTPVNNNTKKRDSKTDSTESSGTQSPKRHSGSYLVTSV
The experiment “FLAG-tagged WT β-catenin” addresses B2. The experiment in a line: co-IP, A431 cells.
The target in the experiment “FLAG-β-catenin Y333F” is B4. The experiment in a line: co-IP, A431 cells.
The next experiment concerns the target T1, purified GST-importin α5 (human, UniProt P52294 1-538, limits assumed).
T1 construct: Expressed in bacteria and purified; not shown: GST
The experiment in a line: GST pull-down from lysates of EGF-treated U87/EGFR cells.

The next experiment has as its target endogenous c-Src (human, UniProt P12931 2-536). The experiment in a line: co-IP from nuclear fractions of U87/EGFR cells.

T1 sequence (P52294 whole entry): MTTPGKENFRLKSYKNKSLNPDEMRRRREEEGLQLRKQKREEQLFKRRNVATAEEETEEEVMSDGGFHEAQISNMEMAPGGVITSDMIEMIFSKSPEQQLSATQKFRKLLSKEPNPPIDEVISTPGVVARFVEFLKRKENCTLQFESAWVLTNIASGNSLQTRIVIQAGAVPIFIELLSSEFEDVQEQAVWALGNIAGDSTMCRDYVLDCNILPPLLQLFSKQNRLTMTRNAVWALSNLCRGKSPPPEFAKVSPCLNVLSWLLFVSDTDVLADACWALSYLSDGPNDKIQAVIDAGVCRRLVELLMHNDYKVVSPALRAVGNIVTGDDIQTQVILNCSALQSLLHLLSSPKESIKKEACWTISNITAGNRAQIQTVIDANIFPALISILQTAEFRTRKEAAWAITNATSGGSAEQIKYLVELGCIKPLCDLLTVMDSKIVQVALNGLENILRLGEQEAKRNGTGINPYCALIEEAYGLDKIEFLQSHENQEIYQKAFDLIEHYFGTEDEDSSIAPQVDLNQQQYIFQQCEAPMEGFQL

For B1, the binding result with endogenous β-catenin was “binds”.

On to B2, for which the binding result in experiment [1] and in experiment [2] was “binds” throughout.

For the molecule B3, the binding result in the experiment with FLAG-tagged WT β-catenin and in the experiment with FLAG-β-catenin Y333F was “binds” in each case.

With B4, the binding result in experiment [1] and in experiment [2] was “binds” in each case.

Turning to B5, the binding result with purified GST-importin α5 is “no binding”.

B6: in the experiment with endogenous β-catenin, the binding result is on record as “no binding”.

With B7, the binding result with endogenous c-Src was “binds”.

B8: the binding result with endogenous β-catenin was “binds”.
